Laboratory results taken from patent US20230322880A1 (MEDIKINE, published 2023).
Where no end group is shown, it is not given here.

Biological target: T1, IL-7Rα-Fc (CD127 protein, Fc tag; ECD 21-236; ACRObiosystems, Inc, Cat. #ILA-H5258) (human, UniProt P16871 21-236)
T1 construct: range 21-236; also called hu-IL-7Rα subunit; not shown: Fc tag of the purchased protein
T1 sequence (looked up): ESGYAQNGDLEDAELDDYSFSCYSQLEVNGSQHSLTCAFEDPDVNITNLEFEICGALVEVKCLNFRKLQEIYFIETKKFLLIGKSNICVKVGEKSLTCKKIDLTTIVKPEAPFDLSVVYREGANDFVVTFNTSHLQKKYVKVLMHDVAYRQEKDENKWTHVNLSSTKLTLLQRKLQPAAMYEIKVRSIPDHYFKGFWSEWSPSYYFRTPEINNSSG
Assay: competition binding ELISA, plate-coated receptor, biotinylated reference peptide::NA-HRP tracer
Procedure: Binding of the synthetic IL-7Rα ligands to IL-7Rα was evaluated using a competition binding ELISA. Microtiter plate wells were coated with IL-7Rα-Fc (CD127 protein, Fc tag; ECD 21-236; ACRObiosystems, Inc, Cat. #ILA-H5258) at 1 μg/mL; 50 μL per well in PBS for at least 1 h. The plate was washed once with wash buffer (200 μL, PBS containing 0.05% Tween®-20 (Sigma). Wells were blocked with blocking buffer (PBS containing 1% BSA (BSA Fraction V; VWR Cat. No. 97061-416) for 1 h. A serial dilution of the peptides was prepared, at twice the final concentration, in assay buffer (PBS containing 0.5% BSA and 0.05% Tween®-20) in a 96-well polypropylene plate. A terminal biotinylated form of the reference IL-7Rα peptide ligand having SEQ ID NO: 300 ([…]) was used to make a precomplex with NeutrAvidin-HRP (NA-HRP; ThermoFisher Cat. No. 31030) (Precomplex referred to as bnPeptide::NA-HRP). The bnPeptide::NA-HRP precomplex was prepared by mixing 1.5 μL 100 μM biotinylated peptide, 2 μL NA-HRP and 11.5 PBS and incubated at 4° C. for at least 45 min. After blocking the wells, the plate was washed with a plate washer and serial dilutions of the peptides were added (50 μL/well) and the plate was incubated at 4° C. for 1 h on a plate shaker. […] Fifty (50) μL of a solution (Surmodics Cat. #LSTP-0100-0) was then added and the plate read at 450 nm. […]

binding result: binds
B1: IL-7Rαγc ligand having SEQ ID NO: 30 (peptide)
peptide: GWGIPWCTLDPGSLQCAWLGKHGGGGSGGVVCQDWEGVELCWQGG
modifications: disulfide (positions not given here); also: two disulfide bridges, pairing not given here
